What was measured:
H3K9me3 peptide [1] = biological target: T1, H3K9me3 peptide (Homo sapiens, UniProt P68431); test: SPR, immobilized H3K9me3 peptide; type: binding; conditions: for association kinetics: H3K9me3 surfaces of different density; for dissociation (release from matrix): more pronounced at higher H3K9me3 surface densities
T1 construct: C-terminally biotinylated histone H3 peptides (aa 1–20)
Method: SPR measurements were performed on a Biacore 2000 instrument (GE Healthcare, Buckinghamshire, UK) at 298 K in 10 mM triethanolamine (pH 7.5), 150 mM NaCl, 0.1 mM EDTA, 1 mM DTT, 0.005% (v/v) Tween-20. Biotinylated ligands were immobilized on streptavidin-coated sensor chips SA (GE Healthcare, Buckinghamshire, UK). Before immobilization, sensor chips were conditioned as described by the manufacturer. To obtain low surface densities (5–24 RU), 5 nM biotinylated H3 peptide was injected at a low rate of 10 μl min^−1 using varying contact times. High surface densities (>700 RU) were prepared by injecting […] peptide (10 μl min^−1) until the SA surface was saturated. Peptide-containing chips were regenerated by applying three short pulses of 0.05% (w/v) SDS followed by an injection of 1.5 M NaCl for baseline stabilization. For binding assays, hHP1β proteins were injected at […] (serial twofold dilutions) for 2 min (30 μl/min). Dissociation was recorded for up to 5 min. A streptavidin surface without ligands served as reference. In addition, blank runs were performed for double referencing. Data evaluation was performed by steady-state analysis assuming a Langmuir 1:1 binding model using BIAevaluation 4.1 and Prism 5.04 (GraphPad, CA, USA) software. Binding to the unmodified peptides was analysed with maximum binding (RUmax) set to the corresponding values obtained with the modified peptides.
Figure S8 Hiragami-Hamada et al.
20 30 one site-specific 20 30 one site-specific […]
time [s] concentration [ μM] time [s] concentration [ μM]
40 two site-specific 40 one site-specific […]
time [s] concentration [ μM]
Supplementary Figure 8: hHP1β binds nucleosomes as dimer.
(a) Dynamic light scattering (DLS) analysis of recombinant hHP1β WT (blue) and I161A (red).
(b) SPR response traces of injection of hHP1β WT into Biacore cells containing biotinylated H3K9me3-peptide immobilized on a sensory chip via covalently coated streptavidin. Immobilized peptide was at 24
RU. Injection series are from 0.024 to 50 µM protein concentration.
(c) Blot of signal over concentration of the titration in (b) to deduce an apparent Kd value. Best fitting was achieved by one site-specific binding model.
(d ) Same analysis as in (b) but with hHP1β I161A.
(e) Blot of signal over concentration of the titration in (d) to deduce an apparent Kd value. […]
(also on this page, place not known: dimer . hHP1 β H3K9me3 - se nsory ( b) site -specific ( b) hHP1 β ( d) site -specific hHP1 β modifi ed H3K9me3 -mononucleosomes H3 -tails -30 -50 -8 -4 200 -10 110 -50 -10 -30 [μM] [μM] -10 190 150 -10 110 200 -10 110 μl/min μl/min μl/min -50 150 response [RU] response [RU] response [RU] response [RU] response [RU] [μM] 10 50 response [RU]40 0 0 [μM] 10 30 50 response [RU] 40 0 0 40 [μM] 10 30 50 response [RU] 140 40 0 120 0 40 response [RU] response [RU] response [RU] Kd Kd μM Kd μM 0.8 0.6 0.4 0.2 0 1 1.0 0.8 0.6 0.4 0.2 0.0 mass fraction)

H3K9me3 peptide [2] = biological target: T1, H3K9me3 peptide; test: ITC, H3K9me3 peptide; type: binding; conditions: for Kd / N (stoichiometry of interaction): ITC; for Kd: 10 mM triethanolamine pH 7.5, 0.1 mM EDTA, 25°C, read-out: Kd (apparent dissociation constant); for N (stoichiometry of interaction): pH 7.5, 25°C
Method: ITC measurements were performed on a iTC200 calorimeter (Microcal, Malvern, UK) at 25°C in binding buffer (10 mM triethanolamine (pH 7.5), 20 or 150 mM NaCl, 0.1 mM EDTA). Reaction heats were recorded by sequences of 37 injections of 1.8 mM hHP1β, spaced at 120 s intervals, into 250 μl of 60 μM H3 peptides, nucleosomes or oligonucleosomal arrays under constant stirring at 1,000 r.p.m. (injection #1–10: 0.5 μl each; injection #11–32: 1 μl each; injection #33–37: 2 μl each). Heats of dilution, obtained by the titration of hHP1β into buffer, were substracted from raw data before analysis. Raw data were integrated, normalized and the apparent heat change (Δq) of the reaction was plotted against the molecular ratio using the Origin software. For the determination of apparent enthalpy changes (ΔHapp), the molar association constant (KA), and the stoichiometry (n) of the interaction, non-linear least-square fitting of the Δq values was performed by the Origin software using a binding model of one set of identical binding sites.
Figure S4 Hiragami-Hamada et al. […]
Supplementary Figure 4: Quantitative analysis of interaction of hHP1β with H3K9me3-peptides and
(a) ITC measurements of H3K9me3-peptide/hHP1β WT interaction at 20 mM NaCl (left) and 150 mM
NaCl (right). Upper panels, raw data of heat release upon stepwise injection of recombinant protein into
solution of peptide; lower panels, plots of integrated heats of protein injections vs. molar ratio of hHP1β
WT per peptide calculated by MicroCal software. Injections #1-10: 0.5 µl; injections #11-32: 1 µ l; […]

mouse fibroblasts = test: Subnuclear distribution of EGFP fusion proteins; type: cell-based; conditions: GFP fusions transiently expressed, n >100
Text: Supplementary Figure 11: Subnuclear distribution of hHP1 β wild type and mutant proteins .
(a) The indicated proteins fused to EGFP were transiently expressed in mouse fibroblast cells.
Representative fluorescence confocal images are shown. DNA was stained with DAPI. Scale bar […]
(b) Quantification of the subnuclear distribution of the hHP1β WT and mutant proteins analyzed as in ( a) by visual inspection. EGFP signal in each transfected cell was categoriz ed into ‘dotted’ (see WT distribution in panel a) or ‘diffuse’ (see distribution of I161A in panel a). n >100 for each condition.
(1 picture or pasted object on this page, not shown here)

[3] = SPR titration 0.024 to 50 µM, peptide at 24 RU, one site-specific binding model, read-out: apparent Kd (Supplementary Fig. 8c,e)
[4] = SPR, 150 mM NaCl, pH 7.5, 298 K, steady-state, WT value based on fitting to a one site-specific binding model, read-out: Kd (apparent dissociation constant)

Row | Substance | Kd (H3K9me3 peptide [1]; [3]) [nM] | Kd (H3K9me3 peptide [1]; [4]) [nM] | association kinetics (H3K9me3 peptide [1]; SPR) | dissociation (release from matrix) (H3K9me3 peptide [1]; SPR) | Kd (H3K9me3 peptide [2]; 20 mM NaCl) [nM] | N (stoichiometry of interaction) (H3K9me3 peptide [2]; 20 mM NaCl) | Kd (H3K9me3 peptide [2]; 150 mM NaCl) [nM] | N (stoichiometry of interaction) (H3K9me3 peptide [2]; 150 mM NaCl) | binding to H3K9me3 peptide relative to WT (H3K9me3 peptide [2]; Table 1) | subnuclear distribution (mouse fibroblasts) | stronger binding to the H3K9me3 matrix compared with the I161A protein (H3K9me3 peptide [1]; SPR titration) [fold] | binding mode (H3K9me3 peptide [1]; SPR, H3K9me3 peptide and mononucleosome surfaces)
1 | hHP1β I161A: CSD point mutant of hHP1β incapable of dimerization | 7500 | 7000 ± 400 | very fast association kinetics | dissociated rapidly from the H3K9me3 ligand | 1100 ± 500 | 1.0±0.1 | 3400 ± 200 | 0.9±0.0 | bound an H3K9me3-peptide as efficiently as hHP1β wild type | diffuse distribution | – | –
2 | hHP1β WT: recombinant human heterochromatin protein 1β (GenBank NM_001127228), 185 aa | 730 | 700 ± 100 | very fast association kinetics | released more slowly | 1400 ± 600 | 0.9±0.0 | 3300 ± 200 | 1.0±0.0 | – | largely localized to characteristic areas of pericentromeric heterochromatin enriched in H3K9me3 | 10 | fully consistent with a bivalent interaction mode
